In patent US20200362034A1 (KINDRED BIOSCIENCES, published 2020):

B1: GLP1-G8_I_VARfeIgG2 (Fc fusion)
chain: HGEGTFTSDVSSYLEGQAAKEFIAWLVKGGGGSGGGGSGGGGSGGGGSPKTASTIESKTGECPKCPVPEIPGAPSVFIFPPKPKDTLSISRTPEVTCLVVDLGPDDSNVQITWFVDNTEMHTAKTRPREEQFNSTYRVVSVLPILHQDWLKGKEFKCKVNSKSLPSAMERTISKAKGQPHEPQVYVLPPTQEELSENKVSVTCLIKGFHPPDIAVEWEITGQPEPENNYQTTPPQLDSDGTYFLYSRLSVDRSHWQRGNTYTCSVSHEALHSHHTQKSLTQSPGK
notes: Formula I contiguous polypeptide made in CHO cells; The Fc chains pair through hinge disulfides; also called GLP1 MB variant; GLP1-B
B2: GLP1-G8/GLP1-2G_III_VARfeIgG2 (Fc fusion)
chain: HGEGTFTSDVSSYLEGQAAKEFIAWLVKGGGGSGGGGSGGGGSGGGGSPKTASTIESKTGECPKCPVPEIPGAPSVFIFPPKPKDTLSISRTPEVTCLVVDLGPDDSNVQITWFVDNTEMHTAKTRPREEQFNSTYRVVSVLPILHQDWLKGKEFKCKVNSKSLPSAMERTISKAKGQPHEPQVYVLPPTQEELSENKVSVTCLIKGFHPPDIAVEWEITGQPEPENNYQTTPPQLDSDGTYFLYSRLSVDRSHWQRGNTYTCSVSHEALHSHHTQKSLTQSPGKGGGGSGGGGHAEGTFTSDVSSYLEGQAAKEFIAWLVKGGG

Assays:
[1] = target: human glucagon ligand peptide-1 receptor (GLP1R) (human, UniProt P43220 24-463); assay: cell-based or functional assay
FeGLP1R-N-huFc_PolyHis = FeGLP1R-N-huFc_PolyHis (feline, biotinylated (sites not given) in the Octet assay); assay: biolayer interferometry (Octet); biotinylated FeGLP1R-N-huFc_PolyHis on streptavidin tips; 1:1 fit
Procedure: Briefly, FeGLP1R-N-huFc_PolyHis was biotinylated, the free unreacted biotin was removed, and the biotinylated protein was captured to streptavidin sensor tips. […] Dissociation was monitored for 600 seconds. A buffer only blank curve was subtracted to correct for any drift. […] The buffer for dilutions and all binding steps was: 20 mM phosphate, 150 mM NaCl, pH 7.2.

Sequence of FeGLP1R-N-huFc_PolyHis (feline, biotinylated (sites not given) in the Octet assay) (chain, as listed by the source): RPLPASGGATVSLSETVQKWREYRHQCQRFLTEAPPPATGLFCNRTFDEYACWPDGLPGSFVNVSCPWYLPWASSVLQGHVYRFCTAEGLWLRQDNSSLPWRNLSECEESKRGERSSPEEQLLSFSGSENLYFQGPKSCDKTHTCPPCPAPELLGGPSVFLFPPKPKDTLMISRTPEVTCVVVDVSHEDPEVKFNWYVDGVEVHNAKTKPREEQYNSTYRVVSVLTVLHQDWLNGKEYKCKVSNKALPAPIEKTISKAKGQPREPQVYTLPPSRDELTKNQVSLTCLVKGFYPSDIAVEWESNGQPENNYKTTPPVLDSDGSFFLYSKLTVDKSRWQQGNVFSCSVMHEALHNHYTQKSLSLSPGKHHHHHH

Binder	EC 50 (nM), cAMP Hunter bioassay on CHO-K1 cells overexpressing human GLP1R [1] [nM]	Kd (FeGLP1R-N-huFc_PolyHis) [nM]
B1	0.0281	8 to 16
B2	0.0175	–
